system: Escherichia coli TOP10; test: shrunken log2 fold change of peptide-encoding DNA abundance (4.5 h post-induction vs induction); higher = less antimicrobial activity (less host growth inhibition); conditions: time post-induction: 4.5 h; library: site-saturation at positions 5, 18, 19, 20
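Also: peptides expressed intracellularly from a pBAD plasmid library in pooled LB shake-flask culture, induced with 0.3% L-arabinose, DNA abundance read by NGS, three biological replicates, DESeq2 with apeglm shrinkage.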

Row | Sequence | shrunken log2 fold change
1 | RRIRNRPPRLPRPRPRPITFPRP | -0.0674
2 | RRIRNRPPRLPRPRPRPIVYPRP | -0.528
3 | RRIRNRPPRLPRPRPRPIWCPRP | -0.0833
4 | RRIRNRPPRLPRPRPRPKCFPRP | -0.192
5 | RRIRNRPPRLPRPRPRPKCQPRP | 0.0753
6 | RRIRNRPPRLPRPRPRPKCWPRP | 0.173
7 | RRIRNRPPRLPRPRPRPKDLPRP | -0.0125
8 | RRIRNRPPRLPRPRPRPKEFPRP | -0.012
9 | RRIRNRPPRLPRPRPRPKEGPRP | -0.0345
10 | RRIRNRPPRLPRPRPRPKFRPRP | 0.00344
11 | RRIRNRPPRLPRPRPRPKGMPRP | -0.112
12 | RRIRNRPPRLPRPRPRPKGVPRP | 2.97
13 | RRIRNRPPRLPRPRPRPKHLPRP | -0.403
14 | RRIRNRPPRLPRPRPRPKHYPRP | -0.399
15 | RRIRNRPPRLPRPRPRPKIAPRP | 0.0241
16 | RRIRNRPPRLPRPRPRPKIGPRP | -0.0153
17 | RRIRNRPPRLPRPRPRPKIHPRP | -0.719
18 | RRIRNRPPRLPRPRPRPKINPRP | -0.387
19 | RRIRNRPPRLPRPRPRPKKLPRP | -0.0729
20 | RRIRNRPPRLPRPRPRPKLHPRP | -0.0882
21 | RRIRNRPPRLPRPRPRPKLLPRP | 0.127
22 | RRIRNRPPRLPRPRPRPKLRPRP | 0.00281
23 | RRIRNRPPRLPRPRPRPKQDPRP | -0.0415
24 | RRIRNRPPRLPRPRPRPKQEPRP | 0.0268
25 | RRIRNRPPRLPRPRPRPKQMPRP | 0.267

Row | Sequence | shrunken log2 fold change
26 | RRIRNRPPRLPRPRPRPKRGPRP | 0.00668
27 | RRIRNRPPRLPRPRPRPKRMPRP | -0.056
28 | RRIRNRPPRLPRPRPRPKRNPRP | -0.189
29 | RRIRNRPPRLPRPRPRPKRRPRP | 0.00183
30 | RRIRNRPPRLPRPRPRPKTHPRP | -0.298
31 | RRIRNRPPRLPRPRPRPKTMPRP | 0.177
32 | RRIRNRPPRLPRPRPRPKTPPRP | 0.228
33 | RRIRNRPPRLPRPRPRPKTVPRP | 0.0807
34 | RRIRNRPPRLPRPRPRPKVEPRP | 0.039
35 | RRIRNRPPRLPRPRPRPKVKPRP | -0.196
36 | RRIRNRPPRLPRPRPRPKWLPRP | -0.00522
37 | RRIRNRPPRLPRPRPRPKYLPRP | -0.0259
38 | RRIRNRPPRLPRPRPRPKYMPRP | -0.854
39 | RRIRNRPPRLPRPRPRPLDGPRP | -0.0308
40 | RRIRNRPPRLPRPRPRPLEEPRP | 0.216
41 | RRIRNRPPRLPRPRPRPLESPRP | -0.0331
42 | RRIRNRPPRLPRPRPRPLGKPRP | -0.299
43 | RRIRNRPPRLPRPRPRPLGNPRP | -0.248
44 | RRIRNRPPRLPRPRPRPLIHPRP | -0.714
45 | RRIRNRPPRLPRPRPRPLKSPRP | -0.258
46 | RRIRNRPPRLPRPRPRPLLSPRP | 0.1
47 | RRIRNRPPRLPRPRPRPLMWPRP | -0.175
48 | RRIRNRPPRLPRPRPRPLNRPRP | -0.327
49 | RRIRNRPPRLPRPRPRPLNYPRP | -0.29
50 | RRIRNRPPRLPRPRPRPLPFPRP | -0.153

Row | Sequence | shrunken log2 fold change
51 | RRIRNRPPRLPRPRPRPLPIPRP | -0.299
52 | RRIRNRPPRLPRPRPRPLPMPRP | -0.14
53 | RRIRNRPPRLPRPRPRPLPNPRP | -0.0288
54 | RRIRNRPPRLPRPRPRPLQGPRP | 0.0149
55 | RRIRNRPPRLPRPRPRPLQPPRP | -0.187
56 | RRIRNRPPRLPRPRPRPLREPRP | 0.128
57 | RRIRNRPPRLPRPRPRPLRLPRP | 0.357
58 | RRIRNRPPRLPRPRPRPLRWPRP | 1.25
59 | RRIRNRPPRLPRPRPRPLSWPRP | 0.235
60 | RRIRNRPPRLPRPRPRPLTDPRP | -0.193
61 | RRIRNRPPRLPRPRPRPLTQPRP | -0.328
62 | RRIRNRPPRLPRPRPRPLTYPRP | -0.979
63 | RRIRNRPPRLPRPRPRPLVQPRP | -0.28
64 | RRIRNRPPRLPRPRPRPLVYPRP | -0.943
65 | RRIRNRPPRLPRPRPRPLYKPRP | -0.561
66 | RRIRNRPPRLPRPRPRPMACPRP | -0.109
67 | RRIRNRPPRLPRPRPRPMDHPRP | 0.0184
68 | RRIRNRPPRLPRPRPRPMDKPRP | 0.00658
69 | RRIRNRPPRLPRPRPRPMDPPRP | -0.0437
70 | RRIRNRPPRLPRPRPRPMDYPRP | 0.0678
71 | RRIRNRPPRLPRPRPRPMFAPRP | -0.239
72 | RRIRNRPPRLPRPRPRPMGIPRP | -0.454
73 | RRIRNRPPRLPRPRPRPMHDPRP | -0.117
74 | RRIRNRPPRLPRPRPRPMIYPRP | -0.265
75 | RRIRNRPPRLPRPRPRPMKAPRP | -0.158

Row | Sequence | shrunken log2 fold change
76 | RRIRNRPPRLPRPRPRPMLFPRP | -0.301
77 | RRIRNRPPRLPRPRPRPMLSPRP | 0.081
78 | RRIRNRPPRLPRPRPRPMLTPRP | -0.296
79 | RRIRNRPPRLPRPRPRPMQYPRP | -0.267
80 | RRIRNRPPRLPRPRPRPMSEPRP | -0.0254
81 | RRIRNRPPRLPRPRPRPMSNPRP | 0.0527
82 | RRIRNRPPRLPRPRPRPMSQPRP | -0.0161
83 | RRIRNRPPRLPRPRPRPMTVPRP | -0.12
84 | RRIRNRPPRLPRPRPRPMVEPRP | -0.481
85 | RRIRNRPPRLPRPRPRPMVLPRP | 0.0232
86 | RRIRNRPPRLPRPRPRPMVRPRP | 4.1
87 | RRIRNRPPRLPRPRPRPMYHPRP | -0.248
88 | RRIRNRPPRLPRPRPRPMYNPRP | -0.693
89 | RRIRNRPPRLPRPRPRPNAEPRP | 0.388
90 | RRIRNRPPRLPRPRPRPNCGPRP | 0.0526
91 | RRIRNRPPRLPRPRPRPNCQPRP | -0.182
92 | RRIRNRPPRLPRPRPRPNELPRP | 0.106
93 | RRIRNRPPRLPRPRPRPNFWPRP | 0.0138
94 | RRIRNRPPRLPRPRPRPNGDPRP | -0.0698
95 | RRIRNRPPRLPRPRPRPNIMPRP | -0.599
96 | RRIRNRPPRLPRPRPRPNKPPRP | -0.122
97 | RRIRNRPPRLPRPRPRPNLCPRP | -0.0109
98 | RRIRNRPPRLPRPRPRPNLGPRP | -0.00992
99 | RRIRNRPPRLPRPRPRPNMVPRP | -0.385
100 | RRIRNRPPRLPRPRPRPNNSPRP | -0.376

Row | Sequence | shrunken log2 fold change
101 | RRIRNRPPRLPRPRPRPNNVPRP | -0.943
102 | RRIRNRPPRLPRPRPRPNPIPRP | 0.0101
103 | RRIRNRPPRLPRPRPRPNPPPRP | 0.143
104 | RRIRNRPPRLPRPRPRPNQDPRP | -0.251
105 | RRIRNRPPRLPRPRPRPNQHPRP | -0.116
106 | RRIRNRPPRLPRPRPRPNQTPRP | -0.0303
107 | RRIRNRPPRLPRPRPRPNRAPRP | 0.0272
108 | RRIRNRPPRLPRPRPRPNRMPRP | -0.385
109 | RRIRNRPPRLPRPRPRPNRPPRP | -0.0547
110 | RRIRNRPPRLPRPRPRPNTYPRP | -0.971
111 | RRIRNRPPRLPRPRPRPNVWPRP | 0.0184
112 | RRIRNRPPRLPRPRPRPNWGPRP | -0.0231
113 | RRIRNRPPRLPRPRPRPPASPRP | 0.486
114 | RRIRNRPPRLPRPRPRPPCPPRP | 0.309
115 | RRIRNRPPRLPRPRPRPPEFPRP | -0.144
116 | RRIRNRPPRLPRPRPRPPEKPRP | 0.0323
117 | RRIRNRPPRLPRPRPRPPIWPRP | -0.129
118 | RRIRNRPPRLPRPRPRPPKRPRP | 0.497
119 | RRIRNRPPRLPRPRPRPPLAPRP | 0.697
120 | RRIRNRPPRLPRPRPRPPLEPRP | 0.193
121 | RRIRNRPPRLPRPRPRPPMQPRP | 0.0237
122 | RRIRNRPPRLPRPRPRPPNHPRP | 0.0878
123 | RRIRNRPPRLPRPRPRPPPCPRP | 0.756
124 | RRIRNRPPRLPRPRPRPPRKPRP | 0.523
125 | RRIRNRPPRLPRPRPRPPRYPRP | 0.0834

Row | Sequence | shrunken log2 fold change
126 | RRIRNRPPRLPRPRPRPPTCPRP | -0.221
127 | RRIRNRPPRLPRPRPRPPTMPRP | -0.126
128 | RRIRNRPPRLPRPRPRPPVSPRP | -0.401
129 | RRIRNRPPRLPRPRPRPPWLPRP | 0.482
130 | RRIRNRPPRLPRPRPRPPWNPRP | 0.0711
131 | RRIRNRPPRLPRPRPRPPWVPRP | -0.0522
132 | RRIRNRPPRLPRPRPRPPYHPRP | -0.362
133 | RRIRNRPPRLPRPRPRPPYKPRP | -0.311
134 | RRIRNRPPRLPRPRPRPQASPRP | -0.187
135 | RRIRNRPPRLPRPRPRPQCHPRP | -0.42
136 | RRIRNRPPRLPRPRPRPQCVPRP | -0.0063
137 | RRIRNRPPRLPRPRPRPQIAPRP | -0.155
138 | RRIRNRPPRLPRPRPRPQIIPRP | -0.106
139 | RRIRNRPPRLPRPRPRPQKCPRP | 0.0748
140 | RRIRNRPPRLPRPRPRPQKRPRP | -0.034
141 | RRIRNRPPRLPRPRPRPQNQPRP | -0.212
142 | RRIRNRPPRLPRPRPRPQQDPRP | -0.38
143 | RRIRNRPPRLPRPRPRPQRPPRP | 0.206
144 | RRIRNRPPRLPRPRPRPQRTPRP | -0.248
145 | RRIRNRPPRLPRPRPRPQSSPRP | -0.0447
146 | RRIRNRPPRLPRPRPRPQTPPRP | -0.00271
147 | RRIRNRPPRLPRPRPRPQVEPRP | 0.0172
148 | RRIRNRPPRLPRPRPRPQVMPRP | 0.06
149 | RRIRNRPPRLPRPRPRPQVRPRP | 0.05
150 | RRIRNRPPRLPRPRPRPQWIPRP | -0.446
